Key:
BSA = BSA (Bos taurus, UniProt P02769); assay: Peptide-BSA conjugate ELISA, control wells coated only with blocking solution (BSA); type: binding; conditions: biotinylated peptide-BSA conjugate, BSA-blocked wells, no mAb
From the text: • mAb 735 and 30H12 • MaxiSorp™ plates (NUNC) for coating the antibody: ELISA plates • microtiter plates (NUNC) for peptide dilution: dilution plates • Biotinylated peptide-BSA conjugates prepared as above described • Extravidin alkaline phosphatase-avidin conjugate (SIGMA E2636) • p-nitrophenyl-phosphatase alkaline substrate (SIGMA 104-105) 2.1.2) Buffers • PBS pH 7.4 • Blocking solution: 0.5% BSA in PBS • TBS • TBST: TBS containing 0.05% Tween 20 • Extravidin alkaline phosphatase-avidin conjugate solution: 1/5000 in TBST • Alkaline phosphatase substrate solution; 1 tablet in 5 ml 50 mM NaHCO3, 1 mM MgCl2 solution, pH 9.6. • mixed competitor solution: 1 mM colominic acid with a peptide-BSA conjugate gradient in TBST 2.1.3) Method
Maxisorp™ plate wells were coated with 100 μl mAb solution (25 μg/ml) for 2 h at room temperature. The control wells of the ELISA plates were only coated with the blocking solution. In parallel, the peptide-BSA conjugate dilution plates were blocked with 200 μl blocking solution for 2 h. The antibody coated wells and the control wells were blocked with 200 μl blocking solution for 1 h. In parallel the peptide-BSA conjugate dilution plates were washed 6 times with TBST and 120 μl TBST was added to the wells. An appropriate volume of peptide-BSA conjugate solution was added to the first well and the volume adjusted to 140 μl with TBST. The peptide-BSA conjugate in well one was diluted in the ratio 1/7 by taking 20 μl out of the first well and transferring into the second also to achieve the total volume of 140 μl. This was repeated for the remaining wells. The peptide-BSA conjugate dilutions for the control wells were done the same way. The blocked ELISA plates were washed 6 times with TBST and the peptide-BSA conjugate dilutions or 100 μl of the mixed competitor solution was added to the wells. After incubation for 1 h, the wells were washed 10 times with TBST and 100 μl of the alkaline phosphatase substrate solution was added to the wells. The plates were read out after 10 to 60 min using a microplate reader at 405 nm.
The specificity of peptide p21 (SEQ ID NO: 1) was investigated in a competition ELISA using biotinylated p21-BSA conjugate and a randomized variant of p21 (p22) conjugate as a control. The results presented in Tables X and XI are expressed as percentage of binding by comparison with peptide p21 at the highest concentration (9.45 10^-5 M) which corresponds to 100% binding.

MenB anti-PSA antibody = assay: Competitive binding to PSA-NCAM expressing cells (MenB)
Procedure: FIGS. 12B, 12C and 12D: competitive binding to PSA-NCAM expressing cells. B: pre-incubation of p65 (1 mM) or p66 (1 mM) with MenB anti-PSA antibody. C: 30H12 anti-PSA antibody without peptide. D: pre-incubation of p65 (1 mM) or p66 (1 mM) with 30H12 anti-PSA antibody.
The specificity of p65 and p66 peptides was tested in a competition assay using anti-PSA antibodies and PSA-NCAM expressing cells. […] The binding specificity was examined in greater detail by testing peptide recognition by another anti-PSA mononclonal antibody (MenB). […] Thus, p65 and p66 mimotopes appear to be specific for a unique (idiotypic) determinant.

chick retina axons = assay: Intravitreal injection in chick embryo, retinal whole mount: axon fasciculation and guidance in vivo; conditions: injected into chicken embryo eyes at E3, retina observed at E9
Procedure: The dashed rectangle indicates the area from which photographs were taken. Arrows point toward the optic fissure. Axons of E9 chick retina injected at E3 with the reverse peptide (C,F) or the p65 peptide (D,G,E,H). Arrowheads show examples of axons that leave their fascicle and run perpendicularly to it.
Injections were performed as described in Monnier et al. (Developmental Biology, 2001, 229, 1-14). Briefly, a 2×2 cm window was cut into the shell over E3 chick embryos. One μl of Fast green with 10 mM of p65 or reverse peptide was injected into the right eye vitreous body using a capillary. After a five-days incubation at 37° C., (E8) retinae were dissected, spread onto nitrocellulose filters (MILIPORE), and fixed with 4% paraformaldehyde solution in PBS. Two small DiI (1,1′-dioctadecyl-3,3,3′,3′-tetramethylindocarbocyanine perchlorate) crystals were applied dorsally to the optic fissure. Retinae were stored in the dark at 37° C. for 10 days until the dye reached the axonal growth cones in the fissure, mounted in glycerol:PBS (9:1, v:v) and analysed using confocal microscopy.

[1] = test system: Glial Fibrillary acidic Protein (GFAP) expression; assay: Reactive gliosis after spinal cord injury (GFAP staining); type: in vivo, mouse; conditions: D5 following surgery
Procedure: At D5, lesioned animals which received either p65 (n=3) or reversed p65 (n=3) were transcardiacally perfused. Spinal cords were sectioned in the sagittal plane at 20 μm intervals in blocks of 10 mm length at the lesion site. To examine lesion extent, Nissl staining was performed in series of 1-in-6 sections in all animals. Series of 1-in-3 sections were stained with the MenB anti-PSA (mouse IgM) and/or anti-GFAP (mouse IgG) antibodies.
To assess the effect of the peptide, quantification of the Glial Fibrillary acidic Protein (GFAP) expression as an index of reactive gliosis, was undertaken in a subset of animals taken D5 following surgery. These animals were selected in a blinded manner for quantification. 3 p65 (10 slices per animal) and 3 p65-reverse (10 slices per animal) animals were analyzed. Double-labelling was performed with MenB anti-PSA antibody. Quantification was also performed in a blinded manner.

Sequence of BSA (P02769 25-607): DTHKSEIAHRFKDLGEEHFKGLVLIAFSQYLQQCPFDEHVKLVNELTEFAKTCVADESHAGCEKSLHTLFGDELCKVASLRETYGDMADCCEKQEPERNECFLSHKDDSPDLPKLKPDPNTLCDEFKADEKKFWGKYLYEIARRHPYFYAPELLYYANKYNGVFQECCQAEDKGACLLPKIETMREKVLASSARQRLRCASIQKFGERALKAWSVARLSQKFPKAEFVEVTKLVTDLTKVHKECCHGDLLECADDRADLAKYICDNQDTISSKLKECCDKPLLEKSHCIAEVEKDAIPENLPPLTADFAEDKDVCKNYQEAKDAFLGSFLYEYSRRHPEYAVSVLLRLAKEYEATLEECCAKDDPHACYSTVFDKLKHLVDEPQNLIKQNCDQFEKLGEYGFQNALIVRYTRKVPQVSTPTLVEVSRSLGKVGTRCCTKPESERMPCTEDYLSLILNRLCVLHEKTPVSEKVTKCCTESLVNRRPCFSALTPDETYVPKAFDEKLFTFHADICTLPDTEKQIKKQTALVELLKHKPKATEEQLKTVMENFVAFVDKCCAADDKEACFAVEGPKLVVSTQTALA

Sequence	Binding of peptide to BSA control wells (percentage of binding) (BSA; peptide 1.62 10^−9 M) [%]	Binding of peptide to BSA control wells (percentage of binding) (BSA; peptide 1.67 10^−5 M) [%]	Binding of peptide to BSA control wells (percentage of binding) (BSA; peptide 2.86 10^−9 M) [%]	Binding of peptide to BSA control wells (percentage of binding) (BSA; peptide 2.94 10^−6 M) [%]	Binding of peptide to BSA control wells (percentage of binding) (BSA; peptide 5.04 10^−10 M) [%]	Binding of peptide to BSA control wells (percentage of binding) (BSA; peptide 5.20 10^−7 M) [%]	Binding of peptide to BSA control wells (percentage of binding) (BSA; peptide 8.89 10^−11 M) [%]	Binding of peptide to BSA control wells (percentage of binding) (BSA; peptide 9.27 10^−8 M) [%]	Binding of peptide to BSA control wells (percentage of binding) (BSA; peptide 9.45 10^−5 M) [%]	Recognition of PSA-NCAM by MenB after pre-incubation with peptide (MenB anti-PSA antibody; FIG. 12C)	Antibody specificity of peptide binding (30H12 versus MenB) (MenB anti-PSA antibody; in words)	Axon guidance and fasciculation in retina in vivo (chick retina axons)	Reduction of reactive gliosis (GFAP staining) compared with reverse p65-treatment [1] [%]
DSPLVPFIDFHP [p21]	0 ± 0	1 ± 0	0 ± 0	0 ± 0	0 ± 0	0 ± 0	0 ± 0	0 ± 0	3 ± 1				
CSSVTAWTTGCG [p65]										did not prevent recognition of PSA-NCAM	bind only to 30H12	axons guidance and fasciculation defects	40

From patent publication US7417025B2, “Use of poly-α2,8-sialic acid mimetic peptides to modulate NCAM functions” (Centre National de la Recherche Scientifique, priority 2002, dated 2008)
